Experimental data published in US20220098290A1 (JUNTENDO EDUCATIONAL FOUNDATION, published 2022).
Positions count from the first letter of the chain named.

T1: peptide having cysteine at the amino-terminal of the amino acid sequence (RRMMRTKMR) included in SEQ ID NO: 1
T1 peptide: CRRMMRTKMR

T2: Del 52 type mutant CALR protein (full-length) (human, UniProt P27797 18-417)
T2 construct: mature; also called 52-nucleotide deletion type; CALR Del 52
T2 sequence (looked up): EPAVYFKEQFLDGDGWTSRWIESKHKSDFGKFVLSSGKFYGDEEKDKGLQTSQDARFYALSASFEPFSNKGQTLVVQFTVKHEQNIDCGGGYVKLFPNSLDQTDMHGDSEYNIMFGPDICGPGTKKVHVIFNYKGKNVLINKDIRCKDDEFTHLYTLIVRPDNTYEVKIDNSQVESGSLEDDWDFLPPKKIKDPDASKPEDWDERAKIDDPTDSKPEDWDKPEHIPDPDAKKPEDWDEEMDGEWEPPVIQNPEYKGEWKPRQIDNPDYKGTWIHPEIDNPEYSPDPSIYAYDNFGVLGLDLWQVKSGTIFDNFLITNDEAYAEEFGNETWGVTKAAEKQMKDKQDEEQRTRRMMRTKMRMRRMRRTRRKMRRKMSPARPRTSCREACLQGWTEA

T3: peptide having cysteine at the amino-terminal of the amino acid sequence (RRMMRTKMR) included in SEQ ID NO: 1
T3 construct: Synthetic peptide, analyte in SPR; also called antigen used for production of the antibody
T3 peptide: CRRMMRTKMR

B1: clone B3 antibody (antibody, V domains shown)
VH: QVQLQQSGAELVKPGSSVKISCKASGYTFTRNFIHWIKQQPGNGLEWIGWIFPGDGDTEYNQKFNGKATLTADKSSSTAYMQLSSLTSEDSAVYFCARGNYNYEYFDYWGQGVMVTVSS
VL: DIQMTQSPASLSASLGETVSIECLASEDIYSYLAWYQQKPGKSPQLLIFAANRLQDGVPSRFSGSGSGTQFSLKISGMQPEDEGDYFCLQGSKFPYTFGPGTKLELN
notes: Rat monoclonal antibody purified from a hybridoma (WKY/Izm rat x mouse SP2 myeloma), detected with anti-rat IgG; also called rat clone B3 antibody
B2: clone C6 antibody (antibody, V domains shown)
VH: QVQLQQSGAELVKPGSSVKISCKASGYTFTSYFVHWIKQQPGDGLEWIGWIYPGDGDTEYNHKFNGKSTLTADRSSSTAYMQLSSLTSEDSAVYFCARGNYYDGREVMDAWGQGASVTVSS
VL: DVVLTQTPPTLSATIGQSVSISCRSSQSLLDSDGETYLNWLLQRPGQSPQLLIYSVSNLESGVPNRFSGSGSETDFTLKISGMEAEDLGVYYCMQATHGPYTFGAGTKLELK
notes: Rat monoclonal antibody purified from a hybridoma, detected with anti-rat IgG; also called rat clone C6 antibody
B3: clone G1 antibody (antibody, V domains shown)
VH: B2 VH with H62Q, S68A
VL: B2 VL with S48C, M83V, A96G
notes: Rat monoclonal antibody purified from a hybridoma, detected with anti-rat IgG; also called rat clone G1 antibody

What was measured:
[1] = biological target: T1, peptide having cysteine at the …; experiment: SPR
[2] = biological target: T2, Del 52 type mutant CALR protein …; experiment: immunoblotting and ELISA on Del 52 and its alanine mutants
Method: It was verified that clone B3, C6, and G1 antibodies recognize the amino acid sequence used as an antigen on the mutant CALR protein. The reactivities of the respective antibodies against mutant CALR proteins each having alanine substituted for one amino acid at each position of the amino acids used as the antigen and the amino acids around it were evaluated by immunoblotting (FIG. 13A) and ELISA (FIG. 13B).
The Del 52 type mutant CALR proteins each having alanine (A) substituted for one amino acid at each position of the amino acids in the region from the 367th threonine (T) to the 378th arginine (R) or the protein not having substitution were expressed in HEK 293T cells, and culture supernatants containing secreted mutant CALR proteins were prepared by centrifugation (1,600 g×5 min, 4° C.). The resulting protein solutions were each heat-treated in the presence of SDS and a reducing agent, then developed on a gel by SDS polyacrylamide electrophoresis, electrically transferred on a PVDF membrane, and reacted with a TBS-T solution containing 5% skimmed milk at room temperature for 1 hour, followed by reaction with a 5% BSA/TBS-T solution containing a peroxidase-labeled clone B3, C6, or G1 antibody or a mouse anti-CALR antibody (Abcam plc., Cat #ab22683) at 4° C. overnight. The PVDF membrane reacted with the mouse anti-CALR antibody was washed with a TBS-T solution and was then reacted with a 5% skimmed milk/TBS-T solution containing a peroxidase-labeled anti-mouse IgG antibody (Jackson Immuno Research Inc., Cat #115-035-003) at room temperature for 1 hour. Subsequently, all of the PVDF membranes were washed with a TBS-T solution and were then reacted with a peroxidase luminescence reagent (Thermo Fisher Scientific K.K., Cat #34094). The resulting signals were detected using a FUSION image pickup apparatus (manufactured by Vilber-Lourmat S.A.).

[3] = biological target: T3, peptide having cysteine at the …; experiment: SPR (Biacore T200), clone B3 antibody immobilised, peptide at 1.25-20 nM
Method: Sensor chips (GE Healthcare, Cat #BR100530) for surface plasmon resonance analysis were loaded on a surface plasmon resonance analyzer Biacore T200 (GE Healthcare) and were equilibrated with an HBS-EP buffer (GE Healthcare, Cat #BR100669). Clone B3 antibody adjusted to a concentration of 10 μg/mL with Acetate 5.5 (GE Healthcare, Cat #BR100352) was immobilized using an Amine coupling kit (GE Healthcare, Cat #BR100050) at an immobilized amount of 200 RU. Subsequently, surface plasmon resonance was measured using a peptide having cysteine at the amino-terminal of the amino acid sequence ([…]) included in SEQ ID NO: 1 adjusted to concentrations of 20, 10, 5, 2.5, and 1.25 nM with an HBS-EP buffer, and the dissociation constant was acquired with Biacore T200 Evaluation Software.

Row | Kd [1] [nM] | binding result [2] | binding result [3] | Binder
1 | 0.855 | binds | binds | B1
2 |  | binds |  | B2
3 |  | binds |  | B3
